Among the data in PMC3081611 are percent existing as dimers and stoichiometry N values, retold here.

For orientation: stoichiometry N means the number of molecules, sites or subunits per partner or assembly.

This test addresses CurA ACPI-ACPII-ACPIII tridomain. The experiment in a line: negative stain electron microscopy.

Regarding “CurA ACPI-ACPII-ACPIII tridomain (domain or fragment)”, the percent existing as dimers turned out to be 25% and the stoichiometry N stood at 2.
